Experimental data taken from the Immune Epitope Database (IEDB).

Assays:
HLA-A*02:01 [1] = test: IEDB peptide-MHC binding, purified MHC/competitive/fluorescence; ≥ and ≤ were set here for values at or beyond the usual limits of such assays; conditions: source organism: Sudan ebolavirus
HLA-A*11:01 = test: as above
HLA-A*02:01 [2] = test: IEDB peptide-MHC binding, purified MHC/competitive/radioactivity; filed as Kd, often an IC50 or EC50 that approximates it; ≥ and ≤ were set here for values at or beyond the usual limits of such assays
HLA-A*02:17 = test: as above
HLA-A*02:06 = test: as above; conditions: source organism: Dengue virus 2 Jamaica/1409/1983
HLA-B*08:01 = test: as above
HLA-B*27:05 = test: IEDB peptide-MHC binding, purified MHC/direct/fluorescence; filed as Kd, often an IC50 or EC50 that approximates it; ≥ and ≤ were set here for values at or beyond the usual limits of such assays; conditions: source organism: Reston ebolavirus - Reston
HLA-A*02:01 [3] = test: IEDB peptide-MHC binding, purified MHC/competitive/fluorescence; filed as Kd, often an IC50 or EC50 that approximates it; ≥ and ≤ were set here for values at or beyond the usual limits of such assays; conditions: source organism: Reston ebolavirus - Reston (1989)
HLA-A*26:01 = test: as above; conditions: source organism: Reston ebolavirus - Reston (1989)
HLA-A*69:01 [4] = test: as above; conditions: source organism: Reston ebolavirus - Reston (1989)
HLA-B*15:01 [5] = test: as above; conditions: source organism: Reston ebolavirus - Reston (1989)
HLA-B*15:17 = test: as above; conditions: source organism: Reston ebolavirus - Reston (1989)
HLA-B*18:01 = test: as above; conditions: source organism: Reston ebolavirus - Reston (1989)
HLA-B*39:01 = test: as above; conditions: source organism: Reston ebolavirus - Reston (1989)
HLA-B*46:01 = test: as above; conditions: source organism: Reston ebolavirus - Reston (1989)
HLA-B*51:01 [6] = test: as above; conditions: source organism: Reston ebolavirus - Reston (1989)
HLA-B*57:01 = test: as above; conditions: source organism: Reston ebolavirus - Reston (1989)
HLA-B*15:01 [7] = test: IEDB peptide-MHC binding, purified MHC/competitive/fluorescence; ≥ and ≤ were set here for values at or beyond the usual limits of such assays; conditions: source organism: Vaccinia virus
HLA-A*02:03 = test: IEDB peptide-MHC binding, purified MHC/competitive/radioactivity; filed as Kd, often an IC50 or EC50 that approximates it; ≥ and ≤ were set here for values at or beyond the usual limits of such assays
HLA-A*02:01 [8] = test: IEDB peptide-MHC binding, purified MHC/direct/fluorescence; filed as Kd, often an IC50 or EC50 that approximates it; ≥ and ≤ were set here for values at or beyond the usual limits of such assays; conditions: source organism: Ebola virus - Mayinga, Zaire, 1976
HLA-A*02:12 = test: as above; conditions: source organism: Ravn virus - Ravn, Kenya, 1987
HLA-A*69:01 [9] = test: as above; conditions: source organism: Ebola virus - Mayinga, Zaire, 1976
HLA-B*15:01 [10] = test: IEDB peptide-MHC binding, purified MHC/competitive/radioactivity; filed as Kd, often an IC50 or EC50 that approximates it; ≥ and ≤ were set here for values at or beyond the usual limits of such assays; conditions: source organism: Dengue virus 3 China/80-2/1980
HLA-A*68:02 = test: as above; conditions: source organism: Dengue virus 1 Brazil/97-11/1997
HLA-A*03:01 [11] = test: IEDB peptide-MHC binding, purified MHC/competitive/fluorescence; filed as Kd, often an IC50 or EC50 that approximates it; ≥ and ≤ were set here for values at or beyond the usual limits of such assays; conditions: source organism: Escherichia coli str. K-12 substr. MG1655
HLA-A*24:02 = test: IEDB peptide-MHC binding, purified MHC/competitive/fluorescence; ≥ and ≤ were set here for values at or beyond the usual limits of such assays; conditions: source organism: Variola virus
HLA-A*03:01 [12] = test: IEDB peptide-MHC binding, purified MHC/competitive/radioactivity; filed as Kd, often an IC50 or EC50 that approximates it; ≥ and ≤ were set here for values at or beyond the usual limits of such assays; conditions: source organism: Vaccinia virus WR
HLA-A*31:01 = test: as above; conditions: source organism: Vaccinia virus WR
HLA-A*33:01 = test: as above; conditions: source organism: Vaccinia virus WR
HLA-A*68:01 = test: as above; conditions: source organism: Vaccinia virus WR
HLA-B*51:01 [13] = test: as above; conditions: source organism: Dengue virus 2 Peru/IQT2913/1996
[14] = source organism: Sudan ebolavirus
[15] = source organism: Dengue virus 4 Philippines/H241/1956
[16] = source organism: Dengue virus 2 Jamaica/1409/1983
[17] = source organism: Dengue virus 1 Singapore/S275/1990
[18] = source organism: Dengue virus 3 China/80-2/1980
[19] = source organism: Dengue virus 2 Thailand/NGS-C/1944

Sequence: SMPLGVVTN
- IC50 (HLA-A*02:01 [1]): ≥ 115 µM
- IC50 (HLA-A*11:01; [14]): ≥ 163 µM

Sequence: ILAKAIFKL
- Kd (HLA-A*02:01 [2]; [15]): 0.014 µM
- Kd (HLA-A*02:17; [15]): 0.0379 µM

Sequence: WLVHRQWFL
- Kd (HLA-A*02:01 [2]; [16]): 0.0024 µM
- Kd (HLA-A*02:06): 0.156 µM
- Kd (HLA-A*02:17; [16]): 0.0618 µM
- Kd (HLA-B*08:01; [16]): 0.00869 µM

Sequence: ALPVYLMTL
- Kd (HLA-A*02:01 [2]; [15]): 0.0109 µM
- Kd (HLA-A*02:17; [15]): 0.00177 µM

Sequence: GRYNLVPPK
- Kd (HLA-B*27:05): 0.0976 µM
- Kd (HLA-A*02:01 [3]): ≥ 20 µM
- Kd (HLA-A*26:01): ≥ 20 µM
- Kd (HLA-A*69:01 [4]): ≥ 20 µM
- Kd (HLA-B*15:01 [5]): ≥ 20 µM
- Kd (HLA-B*15:17): ≥ 20 µM
- Kd (HLA-B*18:01): ≥ 20 µM
- Kd (HLA-B*39:01): ≥ 20 µM
- Kd (HLA-B*46:01): ≥ 20 µM
- Kd (HLA-B*51:01 [6]): ≥ 20 µM
- Kd (HLA-B*57:01): ≥ 20 µM

Sequence: KCIKKGVEY
- IC50 (HLA-B*15:01 [7]): ≥ 91.2 µM

Sequence: GLLCVMASSV
- Kd (HLA-A*02:01 [2]; [17]): 0.0114 µM
- Kd (HLA-A*02:03; [17]): 0.026 µM
- Kd (HLA-A*02:17; [17]): 0.151 µM

Sequence: LLADGLAKA
- Kd (HLA-A*02:01 [8]): 0.0257 µM
- Kd (HLA-A*02:12): 0.004 µM
- Kd (HLA-A*69:01 [9]): 0.848 µM

Sequence: LMMMLPATL
- Kd (HLA-A*02:03; [18]): 0.00662 µM
- Kd (HLA-A*02:17; [18]): 0.227 µM
- Kd (HLA-B*08:01; [18]): 0.0187 µM
- Kd (HLA-B*15:01 [10]): 0.0871 µM

Sequence: TLTAAVLMLV
- Kd (HLA-A*02:01 [2]; [17]): 0.00397 µM
- Kd (HLA-A*02:03; source organism: Dengue virus 1 Brazil/97-11/1997): 0.00345 µM
- Kd (HLA-A*02:17; [17]): 1.06 µM
- Kd (HLA-A*68:02): 0.00158 µM

Sequence: SLCLMMMLPA
- Kd (HLA-A*02:01 [2]; [18]): 0.0657 µM
- Kd (HLA-A*02:17; [18]): 11.7 µM

Sequence: NCYNLEIKK
- IC50 (HLA-A*11:01; [14]): ≥ 72.4 µM

Sequence: LGLDDQEKK
- IC50 (HLA-A*11:01; source organism: Zaire ebolavirus): 30.7 µM

Sequence: KIEAPLLLH
- Kd (HLA-A*03:01 [11]): 0.116 µM

Sequence: DIIIAVARK
- IC50 (HLA-A*11:01; source organism: Variola virus): ≥ 177 µM
- IC50 (HLA-A*24:02): 61.6 µM

Sequence: ETITEKTFK
- IC50 (HLA-A*11:01; source organism: Vaccinia virus Copenhagen): 5.57 µM
- Kd (HLA-A*03:01 [12]): 3.06 µM
- Kd (HLA-A*31:01): 0.823 µM
- Kd (HLA-A*33:01): 0.0026 µM
- Kd (HLA-A*68:01): 0.0121 µM

Sequence: MLLILCTSQI
- Kd (HLA-A*02:01 [2]; [17]): 0.0758 µM
- Kd (HLA-A*02:17; [17]): 0.182 µM

Sequence: VLMMRTTWA
- Kd (HLA-A*02:01 [2]; [16]): 0.0346 µM
- Kd (HLA-A*02:03; [16]): 0.0135 µM
- Kd (HLA-A*02:17; [16]): 15.2 µM
- Kd (HLA-B*08:01; [16]): 0.0128 µM

Sequence: FLFLMSGRGI
- Kd (HLA-A*02:01 [2]; [19]): 0.00421 µM
- Kd (HLA-A*02:03; source organism: Dengue virus 2 Peru/IQT2913/1996): 0.00633 µM
- Kd (HLA-A*02:17; [19]): 0.726 µM
- Kd (HLA-B*51:01 [13]): 7.91 µM
